The target in this test is PTP1B catalytic domain, inactive C215S mutant (1-229 as printed) (human) (UniProt P18031). In words: fluorescence polarisation; competitive titration: labelled CF-ppIRS1 and protein both fixed (50-80% saturation), unlabelled competitor peptide varied; triplicates; Kd from cubic fit. On the technique in general: Fluorescence polarisation rises when a labelled molecule tumbles more slowly, as on binding a larger partner.

This note sets out measurements from publication PMC9481563, “Structural insights into the pSer/pThr dependent regulation of the SHP2 tyrosine phosphatase in insulin and CD28 signaling” (Nature Communications, 2022).

PTP1B catalytic domain, inactive C215S mutant (1-229 as printed) (human), sequence (P18031 1-229 C215S): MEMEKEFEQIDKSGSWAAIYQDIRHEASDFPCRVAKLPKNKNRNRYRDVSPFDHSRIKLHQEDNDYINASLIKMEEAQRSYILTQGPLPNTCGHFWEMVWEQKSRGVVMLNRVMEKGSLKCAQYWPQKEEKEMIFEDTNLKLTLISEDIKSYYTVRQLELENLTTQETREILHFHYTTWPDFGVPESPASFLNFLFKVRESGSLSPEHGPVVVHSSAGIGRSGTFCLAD

Turning to “ppCD28, CD28 peptide dually phosphorylated (pY191 + pT195)”, the fold increase of binding over p0CD28 was determined as 2 fold.

“ppIRS1, IRS1 peptide dually phosphorylated (pY632 + pS636)” returned a fold increase of binding over p0IRS1 of 19 fold.
